Laboratory results: patent publication US20230051715A1 (MABWELL THERAPEUTICS, published 2023)

Tests used:
[1] = target: T1, cynomolgus monkey C1s (produced in house) (cynomolgus monkey, UniProt P09871 16-685 (human entry), limits assumed); test: BLI (Octet RED96e), antibody on AHC biosensor; C1s Species: Cyno Monkey; R^2 0.9999
T1 construct: also called CyC1s
T1 chain: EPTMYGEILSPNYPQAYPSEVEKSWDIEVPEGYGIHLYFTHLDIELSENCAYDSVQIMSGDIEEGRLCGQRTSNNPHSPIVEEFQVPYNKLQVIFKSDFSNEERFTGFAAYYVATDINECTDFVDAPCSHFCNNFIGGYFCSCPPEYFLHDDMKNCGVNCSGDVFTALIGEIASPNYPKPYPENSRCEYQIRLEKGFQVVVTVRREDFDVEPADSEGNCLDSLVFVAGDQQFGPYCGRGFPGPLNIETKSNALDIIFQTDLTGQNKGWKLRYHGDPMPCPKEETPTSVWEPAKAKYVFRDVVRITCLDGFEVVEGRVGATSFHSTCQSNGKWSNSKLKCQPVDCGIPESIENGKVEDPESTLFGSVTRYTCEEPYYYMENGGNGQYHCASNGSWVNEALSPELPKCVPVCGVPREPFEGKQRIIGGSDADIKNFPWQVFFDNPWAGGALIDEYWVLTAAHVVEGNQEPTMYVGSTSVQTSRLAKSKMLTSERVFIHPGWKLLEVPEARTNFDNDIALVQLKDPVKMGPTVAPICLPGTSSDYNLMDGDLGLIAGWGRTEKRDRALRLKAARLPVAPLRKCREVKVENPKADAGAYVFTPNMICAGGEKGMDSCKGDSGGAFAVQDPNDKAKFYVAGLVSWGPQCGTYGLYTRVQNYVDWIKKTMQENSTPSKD
From the text: (§1) At last, analyte was dissociated in 1×KB for 360 sec. Data analysis was done using OCTET® Data Analysis HT Software (Sartorius AG).

[2] = target: T1, cynomolgus monkey C1s (produced in …); test: BLI (Octet RED96e), antibody on AHC biosensor; C1s Species: Cyno Monkey; R^2 0.9997
From the text: as §1

[3] = target: T2, active human C1s (CompTech A104 C1s Enzyme) (human, UniProt P09871 16-688); test: BLI (Octet RED96e), antibody on AHC biosensor; HuC1s Form: Active; R^2 0.9990
T2 construct: also called human active C1s; active C1s protein
T2 sequence (looked up): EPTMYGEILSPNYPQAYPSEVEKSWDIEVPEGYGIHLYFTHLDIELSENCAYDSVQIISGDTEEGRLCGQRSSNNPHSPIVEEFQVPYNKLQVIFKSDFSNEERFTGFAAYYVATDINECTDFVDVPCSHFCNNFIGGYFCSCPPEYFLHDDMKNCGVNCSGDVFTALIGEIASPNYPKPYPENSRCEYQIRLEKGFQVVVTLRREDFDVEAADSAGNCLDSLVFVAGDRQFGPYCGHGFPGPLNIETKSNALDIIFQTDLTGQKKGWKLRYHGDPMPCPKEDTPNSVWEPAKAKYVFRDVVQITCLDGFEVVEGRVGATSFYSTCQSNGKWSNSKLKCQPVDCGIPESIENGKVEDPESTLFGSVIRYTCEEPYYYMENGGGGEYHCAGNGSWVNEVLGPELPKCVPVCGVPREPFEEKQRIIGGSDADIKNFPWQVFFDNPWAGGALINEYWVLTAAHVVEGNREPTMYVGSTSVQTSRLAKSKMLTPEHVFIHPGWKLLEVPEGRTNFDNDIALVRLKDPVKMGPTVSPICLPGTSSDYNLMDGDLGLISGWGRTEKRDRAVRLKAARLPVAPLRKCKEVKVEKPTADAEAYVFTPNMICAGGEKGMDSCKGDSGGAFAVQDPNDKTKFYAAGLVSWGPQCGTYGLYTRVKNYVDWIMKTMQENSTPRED
Method: Bio-Layer Interferometry technology was used for anti-C1s antibody affinity measurement and binding kinetics determinations with OCTET® RED96e system (Sartorius AG). Pre-hydrated Anti-Human IgG Fc Capture (AHC) biosensors were first equilibrated in 1×KB (Kinetic Buffer, 1×PBS pH 7.4+0.02% Tween-20+0.1% BSA) for 120 sec for the first baseline, followed by loading with […] anti-C1s antibody (2-7, FIG. 3A; 2-8, FIG. 3B; hz2-7(H1L2), FIG. 3C; hz2-8(H1L2 G80A/T82A, FIG. 3D) onto AHC biosensors for 240 sec. Then, the second baseline signal was established for 120 sec before association with various concentrations of active human C1s (CompTech A104) for 240-360 sec. At last, analyte was dissociated in 1×KB for 360 sec. Anti-C1s antibodies 2-7 and 2-8 were also analyzed against human C1s proenzyme (CompTech A103) (data not shown). Data analysis was carried out using OCTET® Data Analysis HT Software (Sartorius AG). KD, kₒₙ, koff and R² values were calculated for each antibody and target combination, as summarized in FIG. 3E showing high affinity binding with KD values in the low nanomolar to picomolar range.

B1: Anti-C1s antibody 2-7 (antibody, human IgG1, kappa, V domains shown)
VH: EVKLEESGGGLVPPGGSMKLSCVASGFTFSNYFMNWVRQSPEKGLEWVAEIRLKFTNYATHYAESVEGRFTISRDDSKSSVYLQMNNLRAEDTGIYYCTRDYGSRNGYFDYWGQGTTLTVSS
VL: DIVMTQAAPSVPVTPGESVSISCRSSKSLLHSNGNTFLYWFLQRPGQSPQLLIYRMSNLASGVPDRFSGSGSGTAFTLRVSRVEAEDVGIYYCMQHLEYPYTFGGGTKLEIKT
notes: the HC/LC entries may hold it too; also called clone 2-7
Kd [1]: 0.23 nM | koff [1]: 6.5e-05 s⁻¹ | kon [1]: 280000 M⁻¹ s⁻¹

B2: Anti-C1s antibody hz2-7(H1L2) (antibody, V domains shown)
VH: EVQLLESGGGLVQPGGSLRLSCAASGFTFSNYFMNWVRQAPGKGLEWVSEIRLKFTNYATHYADSVKGRFTISRDDSKSTLYLQMNSLRAEDTAVYYCTRDYGSRNGYFDYWGQGTLVTVSS
VL: DIVMTQTPLSLPVTPGEPASISCRSSKSLLHSNGNTFLYWFLQKPGQSPQLLIYRMSNLASGVPDRFSGSGSGTDFTLKISRVEAEDVGVYYCMQHLEYPYTFGGGTKLEIKR
notes: Humanized, human IgG1 / kappa; also called hz2-7(1L2)
Kd [2]: 0.94 nM | koff [2]: 0.00023 s⁻¹ | kon [2]: 250000 M⁻¹ s⁻¹

B3: Anti-C1s antibody 2-8 (antibody, V domains shown)
VH: EVQLQQSGAELVRPGALVKLSCKASGFNIKEYYMHWVKQRPEQGLEWIGWIDPENGDTIYDPKFQGKASITADTSSNTAYLQLSSLTSEDTAVYYCARSRLFFAYWGQGTLVTVSA
VL: DIVMTQSHKFMSTSVGDRVSFTCKASQDVRTAVDWYQQKPGQSPKLLIYSASYRYTGVPDRFTGTGSGTDFTFTISSVQAEDLAVYFCQQQYTTPYTFGGGTKLEIKT
notes: the HC/LC entries may hold it too; also called clone 2-8
Kd [3]: 0.49 nM | koff [3]: 0.00012 s⁻¹ | kon [3]: 250000 M⁻¹ s⁻¹
